Here are results for six substances from article PMC12421828.

This experiment addresses FLAG-14-3-3ε (pCAGG-FLAG 14-3-3ε of Figure 5, isoform not told). The experiment is described as follows: co-immunoprecipitation (anti-FLAG IP), immunoblot band quantification. Particulars: BSR cells co-transfected; immunoprecipitation at 24 h post-transfection; parent: est. 0.76; read off a plot.
For the substance HA2B* expressed from pCAGG-HA2B* S17A, the response (Elution / Input) is 1.5.

HA2B* expressed from pCAGG-HA2B* S17D: the response (Elution / Input) worked out at 1.4. Turning to HA2B* expressed from pCAGG-HA2B* S17E, the response (Elution / Input) came to 1.7. Then HA2B* expressed from pCAGG-HA2B* S19A, with 1.1. Then HA2B* expressed from pCAGG-HA2B* S19D, with 1.9. Then HA2B* expressed from pCAGG-HA2B* S19E, with 0.76.
